{"source": "patent US7547676B2", "about": "“Antagonist peptides to the C5A chemotactic function of vitamin D binding protein” (The Research Foundation of State University of New York, priority 2004, dated 2009)", "molecules": {"B1": {"name": "DBP: Purified human DBP obtained from Biodesign International (protein)", "chain": "LERGRDYEKNKVCKEFSHLGKEDFTSLSLVLYSRKFPSGTFEQVSQLVKEVVSLTEACCAEGADPDCYDTRTSALSAKSCESNSPFPVHPGTAECCTKEGLERKLCMAALKHQPQEFPTYVEPTNDEICEAFRKDPKEYANQFMWEYSTNYGQAPLSLLVSYTKSYLSMVGSCCTSASPTVCFLKERLQLKHLSLLTTLSNRVCSQYAAYGEKKSRLSNLIKLAQKVPTADLEDVLPLAEDITNILSKCCESASEDCMAKELPEHTVKLCDNLSTKNSKFEDCCQEKTAMDVFVCTYFMPAAQLPELPDVELPTNKDVCDPGNTKVMDKYTFELSRRTHLPEVFLSKVLEPTLKSLGECCDVEDSTTCFNAKGPLLKKELSSFIDKGQELCADYSENTFTEYKKKLAERLKAKLPDATPTELAKLVNKHSDFASNCCSINSPPLYCDSEIDAELKNIL"}}, "key": {"[1]": {"system": "differentiated HL-60 cells", "assay": "Chemotaxis assay, differentiated HL-60 cells responding to C5a, C5a plus DBP or ZAS", "type": "cell-based, Human", "details": "differentiated HL-60 cells; for enhancement of C5a-mediated chemotaxis (net cell movement): 100 pM C5a (FIG. 1: 25-200 pM) plus 50 nM of indicated DBP, 60 min at 37° C", "experimental": "Cells (6×10^6/ml) were resuspended in chemotaxis buffer and treated either with chemotaxis buffer (control), 1 μM of peptide 1 (130-152), or 1 μM of peptide 2 (150-172) for 30 min at room temperature. The chemotactic response of differentiated HL-60 cells to 100 pM C5a alone, C5a plus 50 nM full-length natural DBP or 1% zymosan-activated serum (ZAS) was measured for 60 minutes at 37° C. Numbers represent net cell movement in 60 min, mean±SEM of 3 experiments.\nCells and cell culture: Human promyelocytic cell line HL-60 was obtained from ATCC (Rockville, Md.) and cultured in RPMI 1640 medium supplemented with 10% FBS. Differentiation of HL-60 cells was initiated with 250 μM Bt2cAMP for 48 hours.\nChemotaxis assay. Chemotaxis was performed as described previously (see Kew, R. R. et al., J. Leukoc. Biol. 58, 55-58 (1995)). In brief, 35 μl of C5a (0.01 to 1 nM) in the chemotaxis buffer (HBSS with 1% BSA, 10 mM HEPES) were placed in duplicate in the lower chamber of a 48-well chamber (Neuroprobe, Md.). The lower compartments were covered with a 5 μm pore cellulose nitrate filter and then 50 μl of the cell suspension (2.5×10^5/well) was pipetted into the upper compartments. The chemotactic chamber was incubated for 1 hour at 37° C. in a humidified incubator with 5% CO2. Following incubation, the filter was fixed, stained and mounted on a microscope slide. Cell movement was measured as the distance in microns that the leading front of the cells had migrated into the filter (see Zigmond, S. et al., J. Exp. Med. 137, 387 (1973))."}, "[2]": {"target": "T1, DBP immobilized on a Biacore sensor chip (Homo sapiens, UniProt P02774)", "T1 construct": "DBP was purified from human plasma; purchased Biodesign International; host or cells: human plasma", "T1 sequence (P02774 17-474)": "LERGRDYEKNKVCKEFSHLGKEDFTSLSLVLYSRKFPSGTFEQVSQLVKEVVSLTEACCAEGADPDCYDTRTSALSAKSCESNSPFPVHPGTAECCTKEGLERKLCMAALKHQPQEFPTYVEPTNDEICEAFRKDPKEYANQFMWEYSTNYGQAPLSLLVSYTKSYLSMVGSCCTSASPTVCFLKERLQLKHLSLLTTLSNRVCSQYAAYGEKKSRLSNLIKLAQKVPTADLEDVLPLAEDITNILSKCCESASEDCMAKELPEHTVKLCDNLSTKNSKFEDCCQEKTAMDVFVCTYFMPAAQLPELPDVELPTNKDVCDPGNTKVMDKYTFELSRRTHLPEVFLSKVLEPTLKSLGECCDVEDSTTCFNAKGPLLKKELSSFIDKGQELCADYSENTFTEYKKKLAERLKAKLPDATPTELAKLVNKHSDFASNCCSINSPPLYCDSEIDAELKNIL", "assay": "Biacore surface plasmon resonance: U937-C5aR cell binding to immobilized DBP", "experimental": "FIG. 8A and FIG. 8B show immobilization of DBP on a Biacore surface plasmon resonance sensor chip CM5. Purified DBP in HBSS (5 μM) was coupled to the sensor chip. Coupling was detected using 5 μg/ml affinity-purified anti-DBP (FIG. 8A). Different concentrations of U937-C5aR cells in HBSS were injected into the flow cell and allowed to interact with the immobilized DBP (FIG. 8B). Data is expressed as response units of the molecular interaction on the sensor chip.\nFIGS. 9A to 9C show the effect of pretreating U937-C5aR cells with purified DBP or DBP peptides on the binding to DBP immobilized on a Biacore sensor chip. FIG. 9A: 10^6 cells/ml in HBSS were not treated (control), pretreated with 50 nM DBP, 0.5 μM DBP peptide 1 (p1) or DBP peptide 2 (p2). FIG. 9B: DBP peptide 1 immobilized to the Biacore sensor chip. FIG. 9C: DBP peptide 2 immobilized to the Biacore sensor chip. Data is expressed as response units of the molecular interaction on the sensor chip.\nU937-C5aR cells (10^6 cells/ml in HBSS) were pretreated with a 25 μg/ml control IgG, 50 nM purified DBP or 25 μg/ml affinity-purified anti-CD44 and then allowed to interact with DBP immobilized on a Biacore sensor chip. Data is expressed as response units of the molecular interaction on the sensor chip.\nAccording to the present invention, the interaction of an immobilized ligand, e.g., immobilized DBP, binding to cells can be measure by any established technology available in the art, e.g., by surface plasmon resonance (SPR) or Biacore technology. For example, in the present invention, the binding of U937-C5aR cells to immobilized DBP were examined by Biacore technology, the result of which is used to further determine if the DBP peptides generated in the present invention can alter the interaction U937-C5aR cells and DBP. […] To investigate further the effect of DBP peptides on cell binding, peptide 1 (FIG. 9B) and peptide 2 (FIG. 9C) were immobilized to Biacore sensor chips. […] Finally, the present invention also identifies that CD44 on the cell surface binds DBP and can, in part, mediate the C5a chemotactic cofactor effect of DBP (McVoy and Kew, J. Immunol. 175:4754, 2005). Therefore, using Biacore technology the present invention addresses the effect of blocking CD44 on U937-C5aR binding to immobilized DBP (FIG. 10). In the present invention, U937-C5aR cells were pretreated with either an irrelevant goat IgG (negative control), purified soluble DBP (positive control) or affinity-purified goat anti-CD44. […] These Biacore experiments have provided a powerful quantitative tool to investigate the cell binding region on DBP and examine the effects on DBP peptides on this interaction."}, "[3]": {"system": "differentiated HL-60 cells", "assay": "Ligand-induced calcium mobilization (Fluo-3 AM) in differentiated HL-60 cells", "type": "cell-based, Human", "details": "untreated cells, DBP and C5a added simultaneously"}}}
{"molecule": "B1", "values": [{"measurement": "enhancement of C5a-mediated chemotaxis (net cell movement)", "setting": "[1]; listed as natural DBP", "result": "significantly enhanced"}, {"measurement": "enhancement of C5a-mediated chemotaxis (net cell movement)", "setting": "[1]; listed as purified natural DBP", "result": "significantly enhanced movement to C5a"}, {"measurement": "response of cells treated with DBP alone", "setting": "[1]; no C5a, chemotaxis and Ca2+ flux", "result": "no response"}, {"measurement": "inhibition of U937-C5aR cell binding to the DBP chip", "setting": "[2]; FIG. 9A, 10^6 cells/ml pretreated with 50 nM DBP or 0.5 μM DBP peptide", "result": "almost completely blocked"}, {"measurement": "inhibition of U937-C5aR binding to immobilized DBP", "setting": "[2]; FIG. 10, cells pretreated with 50 nM purified DBP or 25 μg/ml anti-CD44", "result": "completely blocks binding"}, {"measurement": "calcium influx in response to C5a", "setting": "[3]", "result": "did not show augmented calcium influx"}]}
